Data from patent US20080090770A1, “Modulation of Muc1 Mediated Signal Transduction” (priority 2003, published 2008).

Assays:
HCT116/vector cells = assay: Apoptosis assay (sub-G1 DNA content) after siRNA transfection and CDDP treatment; format: cell-based, human; conditions: CDDP 100 μM
Protocol: (§1) Cell culture and transfection: Human colon cancer HCT116 cells and human non-small lung cancer A549 were grown in Dulbecco's modified Eagle's medium (DMEM) and RPMI1640 medium, respectively, in a humidified 5% CO2 atmosphere at 37° C. Media were supplemented with 10% fetal bovine serum (FBS), 100 units/ml of penicillin and 100 μg/ml of streptomycin. HCT116 cells were transfected with pIRES-puro2 or pIRES-puro2-MUC1 as described (Li et al., 2001(a)) and stable transfectants were selected in the presence of 0.4 μg/ml puromycin (Caliochem-Novabiochem).
(§2) A nonspecific scrambled control siRNA (SCRsiRNA) was also synthesized (targeted sequence: 5′-[…]-3′) (Dharmacon, Inc.). Cells were plated, grown in antibiotic-free medium overnight, and then transiently transfected with siRNAs (0.2-20 nM) using Oligofectamine reagent (Invitrogen Life Technology, Inc.) and Opti-MEM 1 reduced serum medium (Invitrogen Life Technology, Inc.) according to the manufacturer's instructions.
(§3) Apoptosis assay: At 48 hr after siRNA transfection, cells were treated with 0, 10 or 100 μM cisplatin (CDDP, Sigma) for 24 hr to induce apoptosis. Apoptotic cells were quantified by analysis of sub-G1 DNA content. Cells were harvested, washed, with PBS, fixed with 75% ethanol, and incubated in PBS containing 200 μg/ml RNase A (Qiagen) for 15 min at 37° C. […] DNA content was analyzed by flow cytometry (EPICS XL-MCL, Coulter Corp.).

HCT116/MUC1 cells = assay: as above; format: cell-based, human; conditions: CDDP 100 μM
Protocol: as §1, §2, §3

[1] = tested on: HCT116 cells transfected with MUC1ΔSANL; assay: Visualization of viable cells after cisplatin in transfected HCT116 cells; format: cell-based, human; conditions: 100 μM cisplatin, 24 and 48 hr
Protocol: Human HCT116 colon carcinoma cells (ATCC, Manassas, Va.) were cultured in Dulbecco's modified Eagle's medium/F12 with 10% heat-inactivated fetal bovine serum, 100 units/ml penicillin, […] streptomycin and 2 mM L-glutamine. HCT116 cells were transfected with pIRES-puro2, pIRESpuro2-MUC1 or pIRES-puro2-MUC1ΔSANL (MUC1 with the four carboxyl terminal amino acids […] deleted) as described (Li et al., 2001). Stable transfectants were selected in the presence of 0.4 mg/ml puromycin (Calbiochem-Novabiochem, San Diego, Calif.).
Cells were incubated with 100 μM cisplatin (CDDP; Sigma), for 24 and 48 hr.

RIL = biological target: T1, RIL (Homo sapiens, UniProt P50479); assay: TransSignal PDZ Domain Array: binding of His-tagged MUC1/CD to immobilized PDZ domain, without or with 7-mer peptide
T1 construct: purchased Panomics Inc
T1 sequence (P50479 1-84 limits assumed): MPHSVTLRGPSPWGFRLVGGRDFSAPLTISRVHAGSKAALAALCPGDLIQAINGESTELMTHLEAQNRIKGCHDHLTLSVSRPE
Protocol: (§4) The ability of the MUC1 cytoplasmic domain (CD) to interact with a panel of 28 human PDZ domain proteins was screened. A His-tagged MUC1/CD was produced to affect the screening. The CD of MUC1 was amplified by RT-PCR from cDNA derived from human breast cancer MCF7 cells. The MUC1/CD gene was cloned into a bacterial vector pEXP (Panomics Inc.) to generate a His-tagged fusion protein (pEXP/MUC1/CD). DH5α E. Coli cells were transformed with pEXP/MUC1/CD and incubated overnight in 1 ml of LB medium containing 100 μg/ml ampicillin (LB/AMP). Eighty μl of the overnight culture was transferred to a tube of 4 ml of LB/AMP and allowed to grow until an OD600 of approximately 0.5-0.8 was evident. IPTG was added to the culture at a final concentration of 0.5 mM to induce expression of the His-tagged MUC1/CD protein. After 4 hours, cells were harvested in 1× resuspension buffer (Panomics Inc.) and lysed by sonication. The lysate was centrifuged at 14000 rpm for 5 minutes at 4° C. The resulting supernatant (bacterial extract) was collected and stored at −80° C. until use.
(§5) The TransSignal PDZ Domain Array kit (Panomics Inc.) was used comprising membranes on which the following 28 human PDZ proteins had been immobilized: MINT-2 d1, Mint-3 d1, Mint-3 d2, Mint-1 d1, Mint1 d2, CSKP, Dlg d1, Dlg1 d3, Dlg2 d2, Dlg4 d3, DVL1, DVL3, DVLL, GIPC, HtrA2, LIMK2, MPP2, NEB1, OMP25, hCLIM1, PTPH1, ZO-2 d1, hPTP1E d1, hPTP1E d5, RGS12, RIL, ZO-1 d3 and ZO-2 d3.
(§6) Membranes were submerged in a small tray with 20 ml of x1 blocking buffer (Panomics Inc.), and shaken at room temperature for 1 hour. The blocking buffer was removed and membranes rinsed twice with x1 Wash Buffer (Panomics inc.) at room temperature. The bacterial extract was diluted to a final concentration of 0.1 mg/ml in 20 ml Resuspension Buffer (Panomics Inc.). The membrane was incubated with the dilute bacterial extract overnight at 4° C. with gentle shaking. After incubation, the membrane was washed three times with 40 ml 1× Wash Buffer at room temperature for 10 minutes each wash. The membrane was then incubated with 20 ml diluted Anti-Histidine HRP Conjugate (Panomics inc., 1:3000 dilution in 1× Wash Buffer) at room temperature for 1 hour. The membrane was then washed with 40 ml 1× Wash Buffer at room temperature for 10 minutes each wash. The membrane was then visualized using […] ECL (Amersham Biosciences) utilizing the Detection Buffers as supplied by Panomics.
(§7) His-tagged MUC1/CD (bacterial extract) was incubated in the absence or presence of a 20-fold molar excess of the 7-mer peptide AAASANL (SEQ ID NO: 133) with the appropriate membrane-immobilized PDZ domain, as described above in Example 4.

Mint-1 d2 = biological target: T2, Mint-1 d2 (Homo sapiens, UniProt Q02410); assay: as above
T2 construct: Mint-1 d2 (XII protein, PDZ domain #2); purchased Panomics Inc
T2 sequence (Q02410 747-822 limits assumed): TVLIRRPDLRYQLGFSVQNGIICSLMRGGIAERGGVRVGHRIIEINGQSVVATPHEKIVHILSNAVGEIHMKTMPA
Protocol: as §4, §5, §6, §7

PTPH1 = biological target: T3, PTPH1 (Homo sapiens, UniProt P26045); assay: as above
T3 construct: purchased Panomics Inc
T3 sequence (P26045 510-582 limits assumed): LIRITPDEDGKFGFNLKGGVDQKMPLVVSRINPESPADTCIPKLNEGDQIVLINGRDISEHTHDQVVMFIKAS
Protocol: as §4, §5, §6, §7

Mint-2 d1 = biological target: T4, Mint-2 d1 (Homo sapiens, UniProt Q99767); assay: as above
T4 construct: Mint-2 d1(XIIL protein, PDZ domain #1); purchased Panomics Inc
T4 sequence (Q99767 568-654 limits assumed): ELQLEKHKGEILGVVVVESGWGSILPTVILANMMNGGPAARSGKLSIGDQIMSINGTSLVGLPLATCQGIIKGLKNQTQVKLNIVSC
Protocol: as §4, §5, §6, §7

HtrA2 = biological target: T5, HtrA2 (Homo sapiens, UniProt O43464); assay: as above
T5 construct: purchased Panomics Inc
T5 sequence (O43464 364-445 limits assumed): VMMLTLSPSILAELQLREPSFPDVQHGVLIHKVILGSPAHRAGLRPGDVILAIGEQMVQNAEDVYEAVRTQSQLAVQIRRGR
Protocol: as §4, §5, §6, §7

OMP25 = biological target: T6, OMP25 (Homo sapiens, UniProt P57105); assay: TransSignal PDZ Domain Array: binding of His-tagged MUC1/CD to immobilized PDZ domain; conditions: bacterial extract 0.1 mg/ml, panel of 28 PDZ proteins
T6 construct: The TransSignal PDZ Domain Array kit (Panomics Inc.) was used; purchased Panomics Inc
T6 sequence (P57105 13-100 limits assumed): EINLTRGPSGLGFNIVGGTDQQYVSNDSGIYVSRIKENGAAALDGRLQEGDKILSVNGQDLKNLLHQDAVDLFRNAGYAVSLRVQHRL
Protocol: as §4, with “use. […]” for “use.”

[2] = bacterial extract 0.1 mg/ml, panel of 28 PDZ proteins

[NH2][Pt]([NH2])([Cl])[Cl] [CDDP, cisplatin]
Sensitivity of cells to apoptosis induced by CDDP (HCT116/vector cells): sensitive to apoptosis
Sensitivity of cells to apoptosis induced by CDDP (HCT116/MUC1 cells): relatively resistant to apoptosis
Sensitivity to CDDP-induced cell death relative to cells transfected with full length MUC1 [1]: substantially increase in the sensitivity to CDDP-induced cell death

AAASANL [7-mer peptide]
Inhibition of binding of his-tagged MUC1/CD to PDZ domain (RIL; 20-fold molar excess of 7-mer): inhibited the binding
Inhibition of binding of his-tagged MUC1/CD to PDZ domain (Mint-1 d2; 20-fold molar excess of 7-mer): inhibited the binding
Inhibition of binding of his-tagged MUC1/CD to PDZ domain (PTPH1; 20-fold molar excess of 7-mer): inhibited the binding
Inhibition of binding of his-tagged MUC1/CD to PDZ domain (Mint-2 d1; 20-fold molar excess of 7-mer): inhibited the binding
Inhibition of binding of his-tagged MUC1/CD to PDZ domain (HtrA2; 20-fold molar excess of 7-mer): inhibited the binding

MUC1/CD: His-tagged fusion protein of the MUC1 cytoplasmic domain, used as bacterial extract
Binding of his-tagged MUC1/CD to PDZ domain (RIL; [2]): Binding was observed
Binding of his-tagged MUC1/CD to PDZ domain (Mint-1 d2; [2]): Binding was observed
Binding of his-tagged MUC1/CD to PDZ domain (PTPH1; [2]): Binding was observed
Binding of his-tagged MUC1/CD to PDZ domain (Mint-2 d1; [2]): Binding was observed
Binding of his-tagged MUC1/CD to PDZ domain (HtrA2; [2]): Binding was observed
Binding of his-tagged MUC1/CD to PDZ domain (OMP25): Binding was observed
